Reference: paper PMC2572727, “The GET Complex Mediates Insertion of Tail-Anchored Proteins into the ER Membrane” (Cell, 2008)

Molecular target: T1, purified Get1-PC and Get2-HA reconstituted in proteoliposomes (yeast, UniProt P53192 1-235; P40056 1-285)
T1 construct: Get1 (Mdm39), yeast; construct details in the Supplemental Data; Get2 (Rmd7, Hur2), yeast; also called +Get1/+Get2; Get1/Get2 complex; source: copurified from yeast, reconstituted into proteoliposomes
T1 sequence (looked up) 1: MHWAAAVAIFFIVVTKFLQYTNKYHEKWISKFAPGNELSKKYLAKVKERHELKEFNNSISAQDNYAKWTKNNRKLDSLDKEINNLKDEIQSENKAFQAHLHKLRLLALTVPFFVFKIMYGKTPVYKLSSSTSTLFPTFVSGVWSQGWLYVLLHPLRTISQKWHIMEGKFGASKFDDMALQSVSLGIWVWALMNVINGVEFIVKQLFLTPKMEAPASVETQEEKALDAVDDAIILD
T1 sequence (looked up) 2: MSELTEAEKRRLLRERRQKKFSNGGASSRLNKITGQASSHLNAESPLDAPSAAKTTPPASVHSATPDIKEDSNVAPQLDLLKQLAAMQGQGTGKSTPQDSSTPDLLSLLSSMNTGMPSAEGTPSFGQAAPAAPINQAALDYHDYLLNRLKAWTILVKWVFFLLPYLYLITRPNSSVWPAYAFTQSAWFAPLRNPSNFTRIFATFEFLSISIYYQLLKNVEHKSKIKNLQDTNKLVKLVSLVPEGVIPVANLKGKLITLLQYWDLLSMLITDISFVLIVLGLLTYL
Test: co-sedimentation; recombinant Get3 incubated with proteoliposomes reconstituted with purified Get1-PC and Get2-HA or with Phs1 as control; Optiprep gradient fractions blotted with αGet3 or αPhs1
Conditions: both partners purified

binding result: binds
B1: recombinant Get3 ATPase (enzyme, yeast, UniProt Q12154 1-354, looked up)
chain: MDLTVEPNLHSLITSTTHKWIFVGGKGGVGKTTSSCSIAIQMALSQPNKQFLLISTDPAHNLSDAFGEKFGKDARKVTGMNNLSCMEIDPSAALKDMNDMAVSRANNNGSDGQGDDLGSLLQGGALADLTGSIPGIDEALSFMEVMKHIKRQEQGEGETFDTVIFDTAPTGHTLRFLQLPNTLSKLLEKFGEITNKLGPMLNSFMGAGNVDISGKLNELKANVETIRQQFTDPDLTTFVCVCISEFLSLYETERLIQELISYDMDVNSIIVNQLLFAENDQEHNCKRCQARWKMQKKYLDQIDELYEDFHVVKMPLCAGEIRGLNNLTKFSQFLNKEYNPITDGKVIYELEDKE
notes: Get3 (Arr4), yeast homolog of Asna1/TRC40, soluble cytosolic ATPase; also called Arr4; source: purified from Escherichia coli (Metz et al., 2006)
